Common to all, as to type: biochemical
In one assay the target is T1, v-Abl kinase (Abelson murine leukemia virus, UniProt P00521).
T1 construct: purchased Calbiochem
Put plainly: v-Abl kinase phosphorylation of optical probe, fluorescence readout after chymotrypsin. The note with it: v-Abl, abl optical probe as substrate; read-out: apparent Km for ATP.

In the next assay the target is PP1 (Homo sapiens, UniProt P62136). Nature of the assay: PP1 inhibitor assay with optical probe. The method, then:
(§1) To determine if the optical probe protein phosphatase assay could detect inhibitors of PP1, the phosphatase assay was performed in the presence or absence of 1 μM microcystin-LR, a potent inhibitor of PP1. Phosphatase assays were set up as described above except the phosphatase was allowed to pre-incubate with microcystin-LR for 10 minutes before the addition of phosphorylated or non-phosphorylated optical probes (SEQ. ID. NO: 23). PP1 reactions were incubated at 30 C for 1 hour and then diluted to 100 μL in 50 mM HEPES, pH 7.5 followed by the addition of chymotrypsin to 0.2 μM. Fluorescence values were measured on the Cytofluor after a 2 hour incubation at room temperature as described above. After treatment of the phosphorylated optical probe with PP1 followed by chymotrypsin, the 460/530 ratio was 13.2±0.2. […] Thus, the present invention could be used to detect inhibitors of PP1 activity.

For another assay, the target named is PP2A (Homo sapiens, UniProt P67775). Put plainly: PP2A inhibitor assay with optical probe. The procedure: (§2) To determine if the optical probe phosphatase assay could detect inhibitors of PP2A, the phosphatase assay was performed in the presence or absence of 100 nM microcystin-LR. PP2A assays were set up as described above, and were incubated at 30 C for 2 hours. Reactions were diluted to 100 μL with 50 mM HEPES, pH 7.5 followed by the addition of chymotrypsin to 0.2 μM. Fluorescence values were measured on the Cytofluor after a 1.5 hour incubation at room temperature. As described above, treatment of the phosphorylated optical probe (SEQ. ID. NO: 23) with PP2A followed by chymotrypsin gave a final 460/530 ratio of 8.8±0.1. […] Thus, the optical probe based phosphatase assay can detect inhibitors of PP2A activity.
Sequence of PP2A (P67775 whole entry): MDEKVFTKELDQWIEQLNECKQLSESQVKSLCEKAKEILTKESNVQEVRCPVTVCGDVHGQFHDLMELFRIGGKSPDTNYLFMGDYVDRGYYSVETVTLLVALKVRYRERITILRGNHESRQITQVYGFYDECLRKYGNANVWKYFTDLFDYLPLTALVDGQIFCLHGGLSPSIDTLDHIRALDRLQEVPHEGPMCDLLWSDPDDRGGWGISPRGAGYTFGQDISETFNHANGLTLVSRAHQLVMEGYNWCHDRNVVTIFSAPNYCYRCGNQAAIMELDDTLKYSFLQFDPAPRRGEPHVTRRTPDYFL

For assay [1], the target named is T2, chymotrypsin (Bos taurus, UniProt P00766). Nature of the assay: Control: effect of inhibitor on chymotrypsin cleavage of non-phosphorylated probe. The procedure:
as §1, §2

The target of assay [2] is T2, chymotrypsin. Nature of the assay: Chymotrypsin cleavage of optical probe with or without casein kinase 1 phosphorylation. The source says:
To measure casein kinase 1 activity, an optical probe was designed as described above. In this case, the kinase substrate was designed so that the point of phosphorylation was located at the P′2 position (underlined in SEQ. I.D. NO: 17 below) with respect to the scissile bond cleaved by chymotrypsin, which enables the creation of a recognition motif suitable for casein kinase 1. A substrate peptide ([…], SEQ. ID. NO: 17) was synthesized and labeled with fluorescein isothiocyanate at the N-terminus and 7-hydroxycoumarin-3-carboxamide at the C-terminus as described in Example 1.
Samples of phosphorylated and non-phosphorylated optical probes were prepared and tested as described in Example 1. In this case, complete phosphorylation of the optical probe (1 μM) was obtained after room temperature incubation for 15 to 30 minutes in the presence of 500 Units of casein kinase 1 (New England BioLabs) in 50 mM Tris-Cl, pH 7.5, 10 mM MgCl2, 5 mM DTT, and 200 μM ATP.
To determine the relative proteolytic sensitivity of phosphorylated and non-phosphorylated optical probes, samples of both were incubated with various concentrations of chymotrypsin and the cleavage monitored by measuring the 460/530 emission ratio as described in Example 1.

Assay [3] concerns the target protein phosphatase I (PPI) (Homo sapiens, UniProt P62136). Nature of the assay: Protein phosphatase I dephosphorylation of optical probe. The method, then:
To determine if the optical probes could be used to detect serine/threonine phosphatase activities, samples of the casein kinase 1 specific phosphorylated optical probes were prepared and treated with various serine/threonine protein phosphatases. To do this, the casein kinase 1 optical probe ([…], SEQ. ID. NO: 17) (100 μM) was phosphorylated to completion with CKI (2000 units) in a 100 μL reaction containing 200 μM ATP for 5 hours at 30° C. A mock kinase reaction was performed which contained no ATP for preparation of control, non-phosphorylated optical probes. The resistance of the phosphorylated optical probe to chymotrypsin cleavage (data not shown) confirmed complete phosphorylation of the CKI-treated optical probe. Phosphorylated and non-phosphorylated samples of the optical probe (2 μM) were incubated in a 50 μL volume with or without 1 unit of the serine/threonine phosphatase protein phosphatase I (PPI) for 2 hours at 30° C. in a buffer consisting of 50 mM Tris-Cl, pH 7.0, 0.1 mM EDTA, 5 mM DTT, 0.01% Brij-35, and 1 mM MnCl2. The reactions were diluted to 100 μL with 50 mM HEPES, pH 7.5, incubated with chymotrypsin (0.2 μM) for 1 hour at room temperature, and fluorescence values were measured on the Cytofluor as described above. Before chymotrypsin addition all reactions had similar 460/530 ratios of about 1.2.

Assay [4] has as its target protein phosphatase 2A (PP2A) (Homo sapiens, UniProt P67775). Nature of the assay: Protein phosphatase 2A dephosphorylation of optical probe. Conditions: 1.5 hour chymotrypsin incubation. The procedure: The optical probes were also evaluated to determine if they could be used to measure protein phosphatase 2A (PP2A) activity. Phosphorylated and non-phosphorylated samples of the CKI optical probes ([…]) were prepared and incubated with 0.03 units of PP2A as described above, except MnCl2 was not included. After dilution and addition of chymotrypsin as described above, fluorescence values were measured using a 96 well plate reader (Cytofluor). After a 1.5 hour chymotrypsin incubation, the 460/530 emission ratio of the phosphorylated optical probe was 1.8±0.2 (Table 18).

Assay [5] has as its target T2, chymotrypsin. Put plainly: Chymotrypsin cleavage of optical probe with or without ERK phosphorylation. The note with it: for 460/530 Emission Ratio, Negative Control (No Active Kinase) / 460/530 Emission Ratio, Positive Control (Active Kinase): 4 nM chymotrypsin. The method, then: This substrate (100 μM) was phosphorylated by incubation at 30 C for 3 hours in a 100 μL reaction containing 500 ng ERK (Biomol) and 500 μM ATP in a buffer consisting of 50 mM Tris-Cl, pH 7.5, 10 mM MgCl2, 1 mM EGTA, 2 mM DTT, and 0.01% Brij-35. To test the proteolytic sensitivity of phosphorylated and non-phosphorylated samples, 2 μL of the mock (no kinase) or kinase reaction was diluted to 100 μL in a buffer containing 50 mM HEPES, pH 7.5, 10 mM CaCl2, and 0.01% Brij-35, and incubated with chymotrypsin at a concentration of 4 nM. Cleavage reactions were monitored on the Cytofluor for 1 hr. […] The maximum fold difference in 460/530 ratio was about 15.2 and occurred after 30 minutes of cleavage.

Setting [6] is: no inhibitor, chymotrypsin 0.2 μM, 2 hour.
[7] abbreviates: no inhibitor, chymotrypsin 0.2 μM, 1.5 hour.

*1 amine or outer side, *2 acyl side, *3 side chain or, on linkers, in order; H or OH if unused. Where a SMILES comes first, the peptide text is derived from it. Bridges are numbered along the chain shown (N, C = ends). Where no end group is shown, it is not given here. [ ]: non-standard residue; d: D form. Adda = CO[C@@H](Cc1ccccc1)[C@@H](C)/C=C(C)/C=C/[C@H](N[*:1])[C@H](C)C(=O)[*:2]; dAsp(3S-Me) = C[C@H](C(=O)[*:3])[C@@H](N[*:1])C(=O)[*:2]; d(γGlu) = O=C(O)[C@@H](CCC(=O)[*:2])N[*:1]; pS = N[C@@H](COP(=O)(O)O)C(=O)O; NMeDha = C=C(NC)C(=O)O

The record followed here is patent US6410255B1, “Optical probes and assays” (priority 1999, dated 2002).

Sequence of protein phosphatase 2A (PP2A) (P67775 whole entry): as above
Sequence of PP1 (P62136 whole entry): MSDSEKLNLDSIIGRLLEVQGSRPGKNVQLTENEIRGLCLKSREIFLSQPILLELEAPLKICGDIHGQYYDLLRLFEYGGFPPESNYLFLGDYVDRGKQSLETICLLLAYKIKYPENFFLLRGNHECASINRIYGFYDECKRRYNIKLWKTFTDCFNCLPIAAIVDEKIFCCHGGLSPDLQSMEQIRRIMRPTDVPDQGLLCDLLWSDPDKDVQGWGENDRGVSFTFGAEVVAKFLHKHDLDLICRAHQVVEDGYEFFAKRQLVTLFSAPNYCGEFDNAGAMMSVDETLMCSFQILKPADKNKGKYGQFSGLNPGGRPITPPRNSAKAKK
Sequence of protein phosphatase I (PPI) (P62136 whole entry): as above
T1 sequence (P00521 whole entry): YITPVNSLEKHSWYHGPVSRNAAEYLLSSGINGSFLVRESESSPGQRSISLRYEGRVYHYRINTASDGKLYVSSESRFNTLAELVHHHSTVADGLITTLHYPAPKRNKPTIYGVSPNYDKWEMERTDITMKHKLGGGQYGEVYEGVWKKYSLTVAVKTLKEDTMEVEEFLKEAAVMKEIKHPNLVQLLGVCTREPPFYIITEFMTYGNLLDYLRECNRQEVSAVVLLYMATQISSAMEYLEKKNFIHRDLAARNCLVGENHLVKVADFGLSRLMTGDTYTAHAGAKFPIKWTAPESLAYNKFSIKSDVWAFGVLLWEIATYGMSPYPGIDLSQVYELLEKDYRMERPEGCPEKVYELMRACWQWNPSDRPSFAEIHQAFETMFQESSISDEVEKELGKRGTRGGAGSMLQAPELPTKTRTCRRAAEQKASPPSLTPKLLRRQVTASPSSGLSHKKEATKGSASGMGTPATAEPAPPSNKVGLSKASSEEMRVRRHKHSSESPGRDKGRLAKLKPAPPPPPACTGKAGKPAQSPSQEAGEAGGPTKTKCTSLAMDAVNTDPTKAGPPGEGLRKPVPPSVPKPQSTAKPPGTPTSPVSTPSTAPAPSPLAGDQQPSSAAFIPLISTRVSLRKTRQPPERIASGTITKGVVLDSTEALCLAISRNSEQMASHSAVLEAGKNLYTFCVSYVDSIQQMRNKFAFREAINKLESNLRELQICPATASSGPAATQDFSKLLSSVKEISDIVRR

As for `Nc1ncnc2c1ncn2[C@@H]1O[C@H](COP(=O)(O)OP(=O)(O)OP(=O)(O)O)[C@@H](O)[C@H]1O` [ATP], at v-Abl kinase, the Km amounted to 8 µM.
With `C=C1C(=O)N[C@H](C)C(=O)N[C@@H](CC(C)C)C(=O)N[C@@H](C(=O)O)[C@H](C)C(=O)N[C@@H](CCCNC(=N)N)C(=O)N[C@@H](/C=C/C(C)=C/[C@H](C)[C@H](Cc2ccccc2)OC)[C@H](C)C(=O)N[C@@H](C(=O)O)CCC(=O)N1C` [microcystin-LR, reference compound] (R[Adda][d(γGlu)][NMeDha][dA]L[dAsp(3S-Me)]-OH; lactam N-7), at PP1, the “460/530 ratio After Chymotrypsin, Phosphorylated Optical probe + PP1 + microcystin-LR” value worked out at 2.8 ± 0.1 and the “inhibition of PP1 activity” value is “almost completely inhibited”. For the same compound, at PP2A, the “460/530 ratio After Chymotrypsin, Phosphorylated Optical probe + PP2A + microcystin-LR” value is recorded as 1.9 ± 0.1; the “460/530 ratio Before Chymotrypsin, Phosphorylated Optical probe + PP2A + microcystin-LR” value amounted to 1.4 ± 0.1; the “inhibition of PP2A activity” value is “completely inhibited”. At chymotrypsin [1], the “460/530 ratio After Chymotrypsin, Non-phosphorylated Optical probe + PP1 + microcystin-LR” value is given as 13.3 ± 0.2; the “460/530 ratio After Chymotrypsin, Non-phosphorylated Optical probe + PP2A + microcystin-LR” value was determined as 11.1 ± 0.2; the “460/530 ratio Before Chymotrypsin, Non-phosphorylated Optical probe + PP2A + microcystin-LR” value turned out to be 1.4 ± 0.1; the “inhibition of chymotrypsin cleavage” value is recorded as “did not inhibit”.
In the case of “GDQDYLSLDK (GDQDYL[pS]LDK; also: FITC and hydroxycoumarin carboxamide labels, places not given here) [casein kinase 1 optical probe, peptide labeled with fluorescein isothiocyanate and 7-hydroxycoumarin-3-carboxamide; casein kinase 1 substrate]”, the “460/530 Emission Ratio, Negative Control (No Active Kinase)” value in the assay with chymotrypsin [2] (chymotrypsin 0.04 μM) was 3.0; in the assay with chymotrypsin [2] (chymotrypsin 0.1 μM) it was 6.6; in the assay with chymotrypsin [2] (chymotrypsin 0.2 μM) it was 10.9; with chymotrypsin [2] (chymotrypsin 0.3 μM), 12.3; in the assay with chymotrypsin [2] (chymotrypsin 0.4 μM) it was 14.3; with chymotrypsin [2] (chymotrypsin 1.0 μM) it was 15.4. Besides, the “460/530 Emission Ratio, Negative Control (No Active Kinase)” value with chymotrypsin [2] (chymotrypsin 2.0 μM) was 15.6. Also, the “460/530 Emission Ratio, Positive Control (Active Kinase Only)” value with chymotrypsin [2] (chymotrypsin 0.04 μM) was 1.2; in the assay with chymotrypsin [2] (chymotrypsin 0.1 μM), 1.4; with chymotrypsin [2] (chymotrypsin 0.2 μM) it was 1.7; with chymotrypsin [2] (chymotrypsin 0.3 μM), 1.9; with chymotrypsin [2] (chymotrypsin 0.4 μM) it was 2.3; with chymotrypsin [2] (chymotrypsin 1.0 μM), 3.8. For the same compound, the “460/530 Emission Ratio, Positive Control (Active Kinase Only)” value with chymotrypsin [2] (chymotrypsin 2.0 μM) turned out to be 6.0. Moreover, the “Fold difference in ratios” value with chymotrypsin [2] (chymotrypsin 0.04 μM) was 2.5; with chymotrypsin [2] (chymotrypsin 0.1 μM) it was 4.7; in the assay with chymotrypsin [2] (chymotrypsin 0.2 μM), 6.4; with chymotrypsin [2] (chymotrypsin 0.3 μM), 6.5; in the assay with chymotrypsin [2] (chymotrypsin 0.4 μM), 6.2; with chymotrypsin [2] (chymotrypsin 1.0 μM) it was 4.1. Besides, the “Fold difference in ratios” value with chymotrypsin [2] (chymotrypsin 2.0 μM) is 2.6. Moreover, the “460/530 Emission Ratio After Chymotrypsin, Phosphorylated Control + Phosphatase (PP1)” value in assay [3] (1 unit PPI, 2 hours at 30° C., chymotrypsin 0.2 μM, 1 hour) was found to be 10.0. Moreover, the “460/530 ratio before chymotrypsin addition” value in assay [3] (all reactions) was “about 1.2”. Besides, the “460/530 Emission ratio After Chymotrypsin, Non-phosphorylated Control” value is reported as 9.8 in assay [3] (chymotrypsin 0.2 μM, 1 hour) and 11.0 ± 0.1 in assay [4]. For the same compound, the “460/530 Emission ratio After Chymotrypsin, Phosphorylated Control” value in assay [3] (chymotrypsin 0.2 μM, 1 hour) worked out at 2.0; in assay [4], 1.8 ± 0.2. In addition, the “460/530 Emission ratio After Chymotrypsin, Phosphorylated Control + Phosphatase (PP2A)” value in assay [4] (0.03 units PP2A) is 8.8 ± 0.1. The “460/530 ratio After Chymotrypsin, Non-phosphorylate Optical probe + PP1” value with PP1 (setting [6]) is given as 13.2 ± 0.1. Besides, in the assay with PP1 (setting [6]), the “460/530 ratio After Chymotrypsin, Phosphorylated Optical probe + PP1” value is recorded as 13.2 ± 0.2. Besides, the “460/530 ratio Before Chymotrypsin, Non-phosphorylate Optical probe + PP2A” value in the assay with PP2A (no inhibitor) worked out at 1.4 ± 0.0. Moreover, the “460/530 ratio Before Chymotrypsin, Phosphorylated Optical probe + PP2A” value with PP2A (no inhibitor) is on record as 1.3 ± 0.0. For the same compound, the “460/530 ratio After Chymotrypsin, Non-phosphorylate Optical probe + PP2A” value in the assay with PP2A (setting [7]) is reported as 11.1 ± 0.1. The “460/530 ratio After Chymotrypsin, Phosphorylated Optical probe + PP2A” value in the assay with PP2A (setting [7]) is recorded as 8.8 ± 0.1.
Regarding “VAPFSPGGRAK [optical probe designed as a substrate for extracellular signal-regulated kinase (ERK)]”, the “460/530 Emission Ratio, Negative Control (No Active Kinase)” value was determined as 0.28 with chymotrypsin [5] (time of cleavage 0 min); 4.17 with chymotrypsin [5] (time of cleavage 10 min); 7.56 with chymotrypsin [5] (time of cleavage 20 min); 10.03 with chymotrypsin [5] (time of cleavage 30 min); 11.71 in the assay with chymotrypsin [5] (time of cleavage 40 min); 12.73 with chymotrypsin [5] (time of cleavage 50 min). Further, in the assay with chymotrypsin [5] (time of cleavage 60 min), the “460/530 Emission Ratio, Negative Control (No Active Kinase)” value is 13.40. In addition, the “460/530 Emission Ratio, Positive Control (Active Kinase)” value worked out at 0.33 in the assay with chymotrypsin [5] (time of cleavage 0 min); 0.44 with chymotrypsin [5] (time of cleavage 10 min); 0.56 with chymotrypsin [5] (time of cleavage 20 min); 0.66 in the assay with chymotrypsin [5] (time of cleavage 30 min); 0.78 with chymotrypsin [5] (time of cleavage 40 min); 0.89 in the assay with chymotrypsin [5] (time of cleavage 50 min). For the same compound, the “460/530 Emission Ratio, Positive Control (Active Kinase)” value with chymotrypsin [5] (time of cleavage 60 min) worked out at 1.00. Further, the “Fold difference in ratios” value in the assay with chymotrypsin [5] (time of cleavage 0 min) was 0.85; in the assay with chymotrypsin [5] (time of cleavage 10 min), 9.45; in the assay with chymotrypsin [5] (time of cleavage 20 min), 13.55; with chymotrypsin [5] (time of cleavage 30 min), 15.16; with chymotrypsin [5] (time of cleavage 40 min) it was 14.99; with chymotrypsin [5] (time of cleavage 50 min), 14.34. In the assay with chymotrypsin [5] (time of cleavage 60 min), the “Fold difference in ratios” value is reported as 13.36.

A word on the Km: it is the substrate concentration at which the rate is half of its maximum.
